The record followed here is the supplement of paper PMC12042874.

± gives the uncertainty stated by the source.

A short description of this data set: amyloid nucleation score (Sup35N fusion, yeast selection) (log enrichment); library NNK3; higher = more nucleation; inactive = no reads after selection. In outline:
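Sup35N fusions to peptides of 20 random codons were expressed in psi-negative yeast, induced 24 hours with 100 μM copper sulfate, and grown 7 days at 30°C on medium lacking adenine and uracil. Input and output plasmid inserts were sequenced by Illumina. The nucleation score is the DiMSum log enrichment of output over input reads, centred on the mode score of non-aggregating sequences. Sequences with under 100 input reads were excluded.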
CLRVLWLSQLTVSCDF returned an amyloid nucleation score of -0.354 ± 1.8.

Regarding CLSTFLGRSEKPL, the amyloid nucleation score result is “inactive”. Substance CLTLMALAKGFGVWGG had an amyloid nucleation score of -0.176 ± 0.92. CLTLYRHQ returned an amyloid nucleation score of 0.313 ± 0.54.

On to CLWKG, for which the amyloid nucleation score result was “inactive”. In turn, CLYFY registered an amyloid nucleation score of 1.93 ± 0.1. As for CLYPGRSWVTGAGITVWSLV, the amyloid nucleation score result is “inactive”. On to CMLAQRRVTPRRYRLVSSTI, for which the amyloid nucleation score entry is “inactive”. Then CMLSDVIFYIVDDIRMFVGV, with “inactive”; and CMNWCVSRMVNTIVIWCMAY, with “inactive”. CNHVSLTMILVRVLNMFF gave an amyloid nucleation score of 0.968 ± 0.23. As to CNNRVVWLKHGSLSREDGVQ, the amyloid nucleation score entry was “inactive”. Take CNSETRAFYYLALWVLFFFN: the amyloid nucleation score entry was “inactive”.

For the substance CNSVRLGFQWAKYVLWRHRG, the amyloid nucleation score result was “inactive”. Then CNWINLNIRSVRIYHPYSRF, with 1.54 ± 0.072.

Regarding CNYPKFHWLGRSVIKFIDFL, the amyloid nucleation score entry was “inactive”. Consider CNYWCDVGLYGSKAFERSAT, for which the amyloid nucleation score result was “inactive”.

For the substance CPGDPVESRCFPVLVNLRRG, the amyloid nucleation score result is “inactive”. Then CPNMPSSTGTKPSNVMVSFS, with “inactive”; and CPTIPMVGTF, with “inactive”; and CPVLGCMSTGEYHCFLTQTY, with “inactive”. CQDHVKNITAIPHSSGMYMS: the amyloid nucleation score entry was “inactive”. Consider CQHGGCALQHHTYRCEVGAG, for which the amyloid nucleation score entry was “inactive”. On to CQPSF, for which the amyloid nucleation score entry is “inactive”. On to CQSKLKLSMLCRWFRCTIGK, for which the amyloid nucleation score entry was “inactive”. In turn, CQSPDALVRWGR registered an amyloid nucleation score of -0.087 ± 0.93. Turning to CQSVLCAKFLVSERH, the amyloid nucleation score entry was “inactive”. Then CRCGSKNTTVRTLLNRGYSE, with “inactive”. With CRFWGFDSSINEVGLMQNHL, the amyloid nucleation score entry is “inactive”.

For CRKLYNISFLVLLTFFSHLF, the amyloid nucleation score result was “inactive”. With CRKTESAMRWK, the amyloid nucleation score result is “inactive”. Take CRLYEDIGISYMVATNQLEY: the amyloid nucleation score result was “inactive”. Then CRMAKRLAVRTSLRRMFSES, with “inactive”; and CRQVRFALLNFLAAG, with “inactive”. Regarding CRQWCDWCTGSYPGYCFQC, the amyloid nucleation score entry was “inactive”. CRRIYPFRP displayed an amyloid nucleation score of -0.064 ± 0.66.

For the substance CRSLSLTSGIKF, the amyloid nucleation score entry was “inactive”. Take CRWNVNNFPHLFITKMMFRY: the amyloid nucleation score result was “inactive”.

As to CSCQMSRFMRTLVCVFT, the amyloid nucleation score entry was “inactive”.

Consider CSEGLYGVSTVICCIISSVN, for which the amyloid nucleation score is 2.2 ± 0.077. Turning to CSEQEACISK, the amyloid nucleation score result was “inactive”. With CSFRIMGDQMIGKTCCRFGH, the amyloid nucleation score entry was “inactive”. For the substance CSFTARFLHTMSPKKFKLGN, the amyloid nucleation score entry is “inactive”. With CSGDD, the amyloid nucleation score result is “inactive”.

Take CSGLCGFSQ: the amyloid nucleation score entry was “inactive”. On to CSGYFDCIDTLKCNSS, for which the amyloid nucleation score entry was “inactive”.

As to CSGYVNGLVIQGKCAKDVVW, the amyloid nucleation score result was “inactive”. For the substance CSLTRFRWGYRTFEDNAPFH, the amyloid nucleation score amounted to 1.57 ± 0.075. For CSLWSMQGYLHEWRICCWRH, the amyloid nucleation score entry was “inactive”.

As to CSMFVAIIPRWSFEWPLRW, the amyloid nucleation score result was “inactive”.

Regarding CSMSAIMYYSARFDV, the amyloid nucleation score result is “inactive”. For the substance CSPSFDVYPMV, the amyloid nucleation score result was “inactive”. With CSRYFRWYHVLAYCSVPNRM, the amyloid nucleation score entry is “inactive”.

The substance CSTFNFRGNTIHLNLCWEVI registered an amyloid nucleation score of 0.424 ± 0.71.
